For orientation: Kd means the constant that tells how readily two partners part at equilibrium.

The source of these data is patent US20260070975A1 (SANTA ANA BIO, published 2026).

The chains are these.
T1: His-tagged FLT3 extracellular domain (UniProt P36888 27-543, limits assumed)
T1 construct: extracellular domain; also called c-Kit family member; not shown: His tag
T1 sequence (looked up): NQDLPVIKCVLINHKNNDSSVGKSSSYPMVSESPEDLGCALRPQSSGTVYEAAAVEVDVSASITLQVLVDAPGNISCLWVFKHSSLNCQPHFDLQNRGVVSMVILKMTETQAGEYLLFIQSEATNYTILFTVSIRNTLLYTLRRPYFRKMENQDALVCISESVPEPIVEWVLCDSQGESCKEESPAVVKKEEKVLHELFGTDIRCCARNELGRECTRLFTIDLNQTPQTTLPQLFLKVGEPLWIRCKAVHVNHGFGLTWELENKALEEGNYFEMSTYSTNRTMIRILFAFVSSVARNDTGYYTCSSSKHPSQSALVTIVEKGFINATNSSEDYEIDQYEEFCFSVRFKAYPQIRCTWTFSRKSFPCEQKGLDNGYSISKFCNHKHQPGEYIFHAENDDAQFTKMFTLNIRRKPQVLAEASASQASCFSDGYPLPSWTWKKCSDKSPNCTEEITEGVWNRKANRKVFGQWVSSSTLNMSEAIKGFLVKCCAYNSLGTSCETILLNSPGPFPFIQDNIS

B1: hSR1-1 (antibody, human IgG1, kappa, V domains shown)
VH: QVQLVQSGAEVKKPGASVKVSCKASGYTFTSYNMHWVRQAPGQGLEWMGVIYSGNGDTSYAQKFQGRVTMTADTSTSTAYMELSSLRSEDTAVYYCARERDTRFGNWGQGTLVTVSS
VL: DIQLTQSPSSLSASVGDRATITCRASESVDIYGNSFMHWYQQKPGKAPKLLIYLASNLESGVPSRFSGSGSGTDFTLTISSVQPEDFATYYCQQNNEDPYTFGQGTKLEIKR
notes: Humanized anti-c-Kit antibody; also called humanized SR1-1; hSR1-H2 / hSR1-L2
B2: hSR1-4 (antibody, human IgG1, kappa, V domains shown)
VH: B1 VH with V20M, M48I, V68A, M70L, T74K
VL: B1 VL
notes: also called humanized SR1-4; hSR1-H3b / hSR1-L2
B3: hSR1-3 (antibody, human IgG1, kappa, V domains shown)
VH: B1 VH with T74K
VL: B1 VL
notes: also called humanized SR1-3; hSR1-H2b / hSR1-L2
B4: hSR1-5 (antibody, human IgG1, kappa, V domains shown)
VH: B1 VH
VL: B1 VL with G72R
notes: also called humanized SR1-5; hSR1-H2 / hSR1-L2r
B5: hSR1-2 (antibody, human IgG1, kappa, V domains shown)
VH: B1 VH with V20M, M48I, V68A, M70L
VL: B1 VL
notes: also called humanized SR1-2; hSR1-H3 / hSR1-L2
B6: hSR1-6 (antibody, human IgG1, kappa, V domains shown)
VH: B1 VH with V20M, M48I, V68A, M70L
VL: B1 VL with G72R
notes: also called humanized SR1-6; hSR1-H3 / hSR1-L2r
B7: anti-siglec/anti-c-Kit bispecific JML-1/hSR1-1 (bispecific antibody, V domains shown)
VH 1: KVQLLESGGGLVQPGRSLRLSCAASGFTFDDYGMHWVRQAPGKGLEWVSGISWNSGSIGYADSVKGRFTISRDNSKNTLYLQMNSLRAEDTAVYYCARGGQTIDIWGQGTMVTVSS
VL 1: not shown
VH 2: B1 VH
VL 2: DIQLTQSPSSLSASVGDRATITCRASESVDIYGNSFMHWYQQKPGKAPKLLIYLASNLESGVPSRFSGSGSGTDFTLTISSVQPEDFATYYCQQNNEDPYTFGQGTKLEIK
B8: Murine anti-c-Kit SR1 (mSR1) (antibody, mouse IgG2a, kappa)
heavy: QVQLQQPGAELVKPGASVKMSCKASGYTFTSYNMHWVKQTPGQGLEWIGVIYSGNGDTSYNQKFKGKATLTADKSSSTAYMQINSLTSEDSAVYYCARERDTRFGNWGQGTLVTVSAAKTTAPSVYPLAPVCGDTTGSSVTLGCLVKGYFPEPVTLTWNSGSLSSGVHTFPAVLQSDLYTLSSSVTVTSSTWPSQSITCNVAHPASSTKVDKKIEPRGPTIKPCPPCKCPAPNLLGGPSVFIFPPKIKDVLMISLSPIVTCVVVDVSEDDPDVQISWFVNNVEVHTAQTQTHREDYNSTLRVVSALPIQHQDWMSGKEFKCKVNNKDLPAPIERTISKPKGSVRAPQVYVLPPPEEEMTKKQVTLTCMVTDFMPEDIYVEWTNNGKTELNYKNTEPVLDSDGSYFMYSKLRVEKKNWVERNSYSCSVVHEGLHNHHTTKSFSRTPGK
light: NIVLTQSPASLAVSLGLRATISCRASESVDIYGNSFMHWYQQKPGQPPKLLIYLASNLESGVPARFSGSGSRTDFTLTIDPVEADDAATYYCQQNNEDPYTFGGGTKLEIKRADAAPTVSIFPPSSEQLTSGGASVVCFLNNFYPKDINVKWKIDGSERQNGVLNSWTDQDSKDSTYSMSSTLTLTKDEYERHNSYTCEATHKTSTSPIVKSFNRNEC
B9: Murine anti-siglec-6 RND (mRND) (antibody, mouse IgG2a, kappa, V domains shown)
VH: QVQLQQPGAELVKPGASVKLSCKASGYAFTSYWMHWVKLRPGQGFEWIGEIYPTNGGTTYNEKFKRKATLTVDKSSSTAYMQLSSLTSEDSAVYYCTIEDFYAMDYWGQGTSVTVSS
VL: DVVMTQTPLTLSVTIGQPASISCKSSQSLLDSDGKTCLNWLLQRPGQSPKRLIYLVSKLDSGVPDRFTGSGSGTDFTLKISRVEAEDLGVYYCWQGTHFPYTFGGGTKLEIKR
notes: also called murine RND; copies: 2 + 2

Changes are numbered by the printed parent chain.

T4 sequence (P16234 24-528 limits assumed): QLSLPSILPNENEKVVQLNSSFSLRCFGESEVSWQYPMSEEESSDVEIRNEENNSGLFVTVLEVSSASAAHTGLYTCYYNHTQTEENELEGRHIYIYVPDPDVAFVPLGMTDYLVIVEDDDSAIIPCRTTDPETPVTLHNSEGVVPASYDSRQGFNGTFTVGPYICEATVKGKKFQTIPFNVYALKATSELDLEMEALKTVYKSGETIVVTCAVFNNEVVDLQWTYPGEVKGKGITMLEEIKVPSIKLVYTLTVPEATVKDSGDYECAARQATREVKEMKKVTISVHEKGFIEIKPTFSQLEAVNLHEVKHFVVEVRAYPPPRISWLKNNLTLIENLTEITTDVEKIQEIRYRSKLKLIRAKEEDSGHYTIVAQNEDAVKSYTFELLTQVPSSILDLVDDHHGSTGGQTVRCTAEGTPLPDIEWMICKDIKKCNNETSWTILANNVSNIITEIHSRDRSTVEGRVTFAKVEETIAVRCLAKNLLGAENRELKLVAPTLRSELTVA
Human c-Kit (BLI analyte), sequence (P10721 26-520 limits assumed): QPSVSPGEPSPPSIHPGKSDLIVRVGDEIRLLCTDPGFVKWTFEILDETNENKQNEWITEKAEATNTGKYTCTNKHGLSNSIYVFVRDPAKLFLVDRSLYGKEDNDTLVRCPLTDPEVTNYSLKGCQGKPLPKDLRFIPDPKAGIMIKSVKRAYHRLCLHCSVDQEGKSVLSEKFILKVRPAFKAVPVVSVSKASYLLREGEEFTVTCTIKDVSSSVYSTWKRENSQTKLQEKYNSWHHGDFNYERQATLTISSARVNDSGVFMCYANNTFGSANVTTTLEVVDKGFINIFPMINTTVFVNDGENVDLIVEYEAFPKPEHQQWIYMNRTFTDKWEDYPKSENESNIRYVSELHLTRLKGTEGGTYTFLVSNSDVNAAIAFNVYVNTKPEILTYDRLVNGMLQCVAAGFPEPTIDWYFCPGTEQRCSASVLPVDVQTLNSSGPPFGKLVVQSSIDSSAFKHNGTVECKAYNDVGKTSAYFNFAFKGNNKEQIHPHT
T5 sequence (P07333 20-517 limits assumed): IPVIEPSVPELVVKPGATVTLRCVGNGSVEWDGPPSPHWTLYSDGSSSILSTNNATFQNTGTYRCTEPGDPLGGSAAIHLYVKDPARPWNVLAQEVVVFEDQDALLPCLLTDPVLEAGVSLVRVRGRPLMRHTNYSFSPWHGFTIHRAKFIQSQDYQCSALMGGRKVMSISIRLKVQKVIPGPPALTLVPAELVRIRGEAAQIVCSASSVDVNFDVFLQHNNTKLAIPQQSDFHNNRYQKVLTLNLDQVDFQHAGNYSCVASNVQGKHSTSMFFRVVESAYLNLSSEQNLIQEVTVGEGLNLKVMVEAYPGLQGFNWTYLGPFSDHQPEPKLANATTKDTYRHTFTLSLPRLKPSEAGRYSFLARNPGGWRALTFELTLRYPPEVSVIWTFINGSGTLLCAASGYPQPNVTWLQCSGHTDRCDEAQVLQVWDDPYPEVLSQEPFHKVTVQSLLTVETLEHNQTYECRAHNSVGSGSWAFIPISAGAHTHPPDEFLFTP
T7 sequence (O43699 27-453): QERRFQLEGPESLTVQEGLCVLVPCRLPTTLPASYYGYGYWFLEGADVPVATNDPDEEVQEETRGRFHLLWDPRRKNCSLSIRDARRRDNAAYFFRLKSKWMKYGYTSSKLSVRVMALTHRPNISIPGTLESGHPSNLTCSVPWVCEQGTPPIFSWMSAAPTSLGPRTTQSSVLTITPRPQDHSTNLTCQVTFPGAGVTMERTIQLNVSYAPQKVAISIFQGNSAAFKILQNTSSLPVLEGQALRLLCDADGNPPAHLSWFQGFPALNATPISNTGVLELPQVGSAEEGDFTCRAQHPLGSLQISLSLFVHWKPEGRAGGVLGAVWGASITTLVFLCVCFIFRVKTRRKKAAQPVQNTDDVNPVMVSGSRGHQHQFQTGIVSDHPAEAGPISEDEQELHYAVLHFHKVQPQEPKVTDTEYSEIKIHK

The target of the first test is T2, c-Kit expressed on the cell surface of M-07e cells (human, UniProt P10721 26-976).
T2 construct: whole, on cells; also called cell surface expressed c-Kit; CD117
T2 sequence (P10721 26-976): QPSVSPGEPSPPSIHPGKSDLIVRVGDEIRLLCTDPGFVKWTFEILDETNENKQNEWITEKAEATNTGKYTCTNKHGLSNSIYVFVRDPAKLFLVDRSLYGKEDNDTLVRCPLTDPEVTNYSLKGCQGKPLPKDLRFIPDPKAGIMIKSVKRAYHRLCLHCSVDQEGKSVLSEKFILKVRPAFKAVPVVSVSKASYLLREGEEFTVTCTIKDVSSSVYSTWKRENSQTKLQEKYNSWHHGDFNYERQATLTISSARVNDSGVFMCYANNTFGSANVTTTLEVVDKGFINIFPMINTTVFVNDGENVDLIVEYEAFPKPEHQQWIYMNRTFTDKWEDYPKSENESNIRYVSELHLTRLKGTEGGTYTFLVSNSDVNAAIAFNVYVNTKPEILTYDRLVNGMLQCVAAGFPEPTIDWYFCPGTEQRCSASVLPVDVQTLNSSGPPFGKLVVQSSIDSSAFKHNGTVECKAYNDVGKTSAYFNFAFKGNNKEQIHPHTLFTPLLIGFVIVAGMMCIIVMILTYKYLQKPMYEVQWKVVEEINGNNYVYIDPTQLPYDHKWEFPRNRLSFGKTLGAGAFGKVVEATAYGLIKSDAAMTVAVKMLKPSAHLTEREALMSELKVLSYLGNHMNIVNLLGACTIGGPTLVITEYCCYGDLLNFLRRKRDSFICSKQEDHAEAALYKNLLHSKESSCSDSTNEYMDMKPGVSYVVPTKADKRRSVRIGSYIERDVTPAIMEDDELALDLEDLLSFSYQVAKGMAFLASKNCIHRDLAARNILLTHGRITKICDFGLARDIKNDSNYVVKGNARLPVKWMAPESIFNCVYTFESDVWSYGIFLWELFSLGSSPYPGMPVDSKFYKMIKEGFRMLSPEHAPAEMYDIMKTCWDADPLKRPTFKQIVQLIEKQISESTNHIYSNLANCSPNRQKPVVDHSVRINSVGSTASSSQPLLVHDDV
The experiment in a line: flow cytometry on M-07e cells. The method, then: (§1) Target binding of c-Kit antibodies to c-Kit-expressing cells was assessed by flow cytometry. Cultured M-07e cells were resuspended in FACS Blocking Buffer (PBS+10% normal human serum) for 30 minutes. Following washing, cells were incubated with c-Kit antibodies in FACS Buffer (PBS+0.5% bovine serum albumin+0.09% sodium azide) and incubated at 4° C. for 30 minutes, washed and incubated with PE-labeled anti-human secondary antibody. Cells were incubated at 4° C. for 30 minutes in the dark. Following washing, cytofluorimetric analysis was conducted using a BD FACS Symphony A3 (BD Biosciences). Cells were sorted by scatter properties and separated for single cell analysis using side scatter width vs side scatter area. Antibody binding to cells was quantitated by measuring fluorescent emissions of excitation wavelength of 561 nm using a 586/15 nm filter. All tested c-Kit antibodies were capable of binding to cells expressing c-Kit.
A general note: In flow cytometry, cells or beads pass a laser one at a time.
B1: the “Measuring Fluorescent Intensity (MFI)” value was found to be 5020 MFI and the “Percent Positive for c-Kit on M-07e cells” value (“Percent Positive for c-Kit” below) was 99.5%.
The like results for B2 were, in that order, 4960 MFI and 99.8%.
Regarding B3, the “Measuring Fluorescent Intensity (MFI)” value stood at 5190 MFI and the “Percent Positive for c-Kit” value amounted to 99.8%.
The like results for B4 were, in that order, 4030 MFI and 99.5%.
On to B5, for which the “Measuring Fluorescent Intensity (MFI)” value worked out at 5200 MFI and the “Percent Positive for c-Kit” value was 99.7%.
For B6, the “Measuring Fluorescent Intensity (MFI)” value was 3590 MFI and the “Percent Positive for c-Kit” value amounted to 99.4%.

A further test has as its target T2, c-Kit expressed on the cell surface of …. Put plainly: cell-based or functional assay.
Take B7: the “IC50 (read off the curve)” value was about 0.3 nM.

For the next test the target is unchanged. Put plainly: cell-based or functional assay. The source holds these as a separate data set.
For the molecule B8, the “IC50, inhibition of SCF-dependent proliferation of M-07e cells” value turned out to be 0.283 nM.
Same read-out and setting: the figure for B1 is 0.141 nM.
On the same count and under the same terms, the figure for B2 is 0.139 nM.
Same read-out and setting: as for B3, the figure is 0.113 nM; as for B4, 0.141 nM; as for B5, 0.142 nM.
In the case of B6, the “IC50, inhibition of SCF-dependent proliferation of M-07e cells” value was 0.152 nM.

In the next test the target is T3, His-tagged PDGFRb extracellular domain (UniProt P09619 33-532, limits assumed).
T3 construct: extracellular domain; also called c-Kit family member; not shown: His tag
T3 sequence (P09619 33-532 limits assumed): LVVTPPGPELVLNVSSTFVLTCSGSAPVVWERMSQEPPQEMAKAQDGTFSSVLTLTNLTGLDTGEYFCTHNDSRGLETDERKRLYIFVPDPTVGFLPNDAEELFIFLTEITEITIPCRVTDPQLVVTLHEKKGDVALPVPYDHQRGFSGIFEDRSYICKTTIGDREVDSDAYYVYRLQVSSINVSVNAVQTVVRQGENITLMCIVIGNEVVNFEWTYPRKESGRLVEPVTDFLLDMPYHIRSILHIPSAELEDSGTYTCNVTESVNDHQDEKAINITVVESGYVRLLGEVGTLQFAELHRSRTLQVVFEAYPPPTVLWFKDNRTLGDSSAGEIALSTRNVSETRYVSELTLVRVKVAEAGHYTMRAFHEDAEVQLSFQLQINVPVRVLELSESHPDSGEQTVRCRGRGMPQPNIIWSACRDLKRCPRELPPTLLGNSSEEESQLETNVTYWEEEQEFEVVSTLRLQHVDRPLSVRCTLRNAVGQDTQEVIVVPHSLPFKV
Put plainly: ELISA, His-tagged extracellular domain coated. The method, then: (§2) His-tagged human c-Kit, His-tagged cynomolgus c-Kit, and His-tagged PDGFRa, PDGFRb, CSF1R, and FLT3 extracellular domains were immobilized on 96 well ELISA plates. Plates were washed with PBST (Phosphate buffered saline+0.05% Tween 20) and blocked for 1 hour with 1% BSA in PBS. Following washing with PBST, mAbs were added to the coated plate and incubated for 2 hours at room temperature. Plates were washed and incubated with HRP-conjugated goat anti-human IgG secondary antibody for 1 hour at room temperature. Following washing, antibody binding was detected colorimetrically by adding 3,3′,5,5′-tetramethylbenzidine (TMB) and incubated at room temperature for 10-20 minutes before adding 2.5N sulfuric acid stopping solution. Absorbance at 450 nm was measured on a plate reader (PerkinElmer). Data was analyzed using GraphPad Prism.
(In an ELISA, binding on a coated surface is turned into a signal by an enzyme label.)
Regarding B1, the binding result is listed as “no binding”.
On to B2, for which the binding result is listed as “no binding”.
As for B3, the binding result is recorded as “no binding”.
On the same count and under the same terms, as for B4, the entry is “no binding”; as for B5, “no binding”; as for B6, “no binding”.

A further test deals with T1, His-tagged FLT3 extracellular domain. The experiment in a line: ELISA, His-tagged extracellular domain coated. The method, then:
as §2
For B1, the binding result is “no binding”.
Same read-out and setting: the entry for B2 is “no binding”.
With B3, the binding result was “no binding”.
On the same count and under the same terms, the entry for B4 is “no binding”.
For B5, the binding result was “no binding”.
On to B6, for which the binding result is reported as “no binding”.

A further test has as its target T4, His-tagged PDGFRa extracellular domain (UniProt P16234 24-528, limits assumed).
T4 construct: extracellular domain; also called c-Kit family member; not shown: His tag
Put plainly: ELISA, His-tagged extracellular domain coated. The procedure: as §2
Regarding B1, the binding result is “no binding”.
The same measure, in the same setting: as for B2, the entry is “no binding”; as for B3, “no binding”; as for B4, “no binding”.
On the same count and under the same terms, as for B5, the entry is “no binding”; as for B6, “no binding”.

A further test has as its target T5, His-tagged CSF1R extracellular domain (UniProt P07333 20-517, limits assumed).
T5 construct: extracellular domain; also called c-Kit family member; not shown: His tag
Put plainly: ELISA, His-tagged extracellular domain coated. The method, then:
as §2
Turning to B1, the binding result is “no binding”.
Take B2: the binding result is listed as “no binding”.
Consider B3, for which the binding result was “no binding”.
The same measure, in the same setting: as for B4, the entry is “no binding”; as for B5, “no binding”.
Turning to B6, the binding result was “no binding”.

For another test, the target named is Human c-Kit (BLI analyte) (human, UniProt P10721 26-520, limits assumed). Put plainly: BLI (Octet), antibody on capture sensor. The procedure:
(§3) Further, binding affinities of c-Kit antibodies to human c-Kit and cynomolgus c-Kit were measured by biolayer interferometry ([…]) using an Octect instrument. Briefly, capture sensors were loaded with test antibodies with 3-fold dilutions. The association and dissociation rates to were determined and used to calculate the equilibrium dissociation constant KD (Table 3).
B1 registered a Kd of 0.199 nM.
The same measure, in the same setting: as for B2, the figure is 0.386 nM; as for B3, 0.256 nM; as for B4, 0.256 nM.
Same read-out and setting: the figure for B5 is 0.245 nM.
The same measure, in the same setting: as for B6, the figure is 0.247 nM.

A further test deals with T6, Cynomolgus c-Kit (BLI analyte) (cynomolgus).
T6 construct: also called Cynomoguls c-Kit
The experiment in a line: BLI (Octet), antibody on capture sensor. The procedure:
as §3
(In general: Biolayer interferometry detects binding as a change in optical thickness at a sensor tip.)
Regarding B1, the Kd worked out at 0.232 nM.
The same measure, in the same setting: as for B2, the figure is 0.563 nM; as for B3, 0.332 nM; as for B4, 0.405 nM.
On the same count and under the same terms, the figure for B5 is 0.389 nM.
Still for that read-out and setting: the figure for B6 is 0.296 nM.

A further test has as its target T7, Human siglec-6 expressed on the cell surface (HMC1.2 cells; HEK293 cells expressing human siglec-6) (human, UniProt O43699 27-453).
T7 construct: whole, on cells; also called cell surface expressed siglec-6; CD327
Put plainly: flow cytometry on HMC1.2 cells. The method, then:
as §1, with “siglec-6” for “c-Kit”, “siglec-6-expressing” for “c-Kit-expressing”, “HMC1.2” for “M-07e”, “anti-human or anti-mouse” for “anti-human”, “antibodies.” for “antibody.”, “siglec-6.” for “c-Kit.”
With B9, the MFI turned out to be 1970 MFI and the “Percent Positive for Siglec-6 on HMC1.2 cells” value came out at 99.9%.
